Source: paper PMC10673952

Tests used:
[1] = biological target: Fluorescein-labeled FimDN (E. coli); test: stopped-flow fluorescence kinetics; fluorescein-labeled FimDN (0.4 μM) mixed with different concentrations of FimCI; 23 °C, 20 mM Tris-HCl pH 8.0; traces fitted globally to second-order binding and first-order dissociation
[2] = biological target: T1, FimA-FimAt (the two subunits of the ternary FimCAA complex) (E. coli) (UniProt P04128); test: chaperone exchange kinetics followed by analytical cation exchange chromatography; 4 μM complex incubated with a 9-fold molar excess (36 μM) of the differently tagged FimC (untagged FimC against FimCHis complexes, FimCHis against FimCA and FimCAA); 20 mM MES-NaOH pH 6.0, 37 °C; single-exponential fit
T1 sequence (P04128 24-182, looked up): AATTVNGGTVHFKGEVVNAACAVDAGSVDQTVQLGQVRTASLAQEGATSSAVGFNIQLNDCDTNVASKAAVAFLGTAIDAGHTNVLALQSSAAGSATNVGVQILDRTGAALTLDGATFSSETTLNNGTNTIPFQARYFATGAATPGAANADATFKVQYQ

Sequence of FimC-FimI complex (FimCI) (P31697 37-241): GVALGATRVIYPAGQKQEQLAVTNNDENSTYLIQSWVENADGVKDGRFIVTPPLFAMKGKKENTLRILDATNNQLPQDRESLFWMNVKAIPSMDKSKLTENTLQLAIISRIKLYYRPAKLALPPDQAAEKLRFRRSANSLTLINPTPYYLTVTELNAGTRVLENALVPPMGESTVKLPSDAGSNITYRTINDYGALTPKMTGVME
Sequence of FimC-FimI complex (FimCI) (P39264 20-179): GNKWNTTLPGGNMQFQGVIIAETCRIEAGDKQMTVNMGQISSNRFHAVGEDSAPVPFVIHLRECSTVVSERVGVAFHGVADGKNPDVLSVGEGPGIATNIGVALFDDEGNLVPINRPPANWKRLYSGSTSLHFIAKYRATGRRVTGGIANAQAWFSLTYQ
Sequence of Fluorescein-labeled FimDN (E. coli) (P30130 46-170 limits assumed): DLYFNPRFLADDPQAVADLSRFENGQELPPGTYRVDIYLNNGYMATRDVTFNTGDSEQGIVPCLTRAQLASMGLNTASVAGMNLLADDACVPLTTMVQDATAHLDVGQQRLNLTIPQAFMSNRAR
Sequence of FimC (P31697 37-241): as the sequence (P31697 37-241) above

With “FimC-FimI complex (FimCI) (from UniProt P31697 37-241; P39264 20-179)” the koff [1] was 94 s⁻¹ and the kon [1] was 1.45e+08 M⁻¹ s⁻¹.
“FimC (from UniProt P31697 37-241) (natural protein)” gave a dissociation half-life [2] of 17.7 min.
